# Assay: soluble on expression in E. coli; label from the status in PepcDB or PDB records
row,Sequence,soluble on expression in E. coli
1,MKRHFETTRRIVIKVGTSSLVQTSGKINLSKIDHLAFVISSLMNRGMEVILVSSGAMGFGLDILKMDKRPQEISQQQAVSSVGQVAMMSLYSQIFSHYQTHVSQILLTRDVVVFPESLQNVTNSFESLLSMGILPIVNENDAVSVDEMDHKTKFGDNDRLSAVVAKITKADLLIMLSDIDGLFDKNPNIYDDAVLRSHVSEITDDIIKSAGGAGSKFGTGGMLSKIKSAQMVFDNNGQMILMNGANPRDILKVLDGHNIGTYFAQGKLEHHHHHH,not soluble
2,MKRILLSLLAMATLVGCGSKDDNNPTPPQRPDFTKEQQNYLPTKKVKHVTATYVEADYENGSYPSVQYKDFLNPELNQGQKFTVKTMEYFYEYDNAGRITKVTFKREGDSDIVSTLTYSNISVTITSPPPYDGIREPRSIEYGLNSSGNILSLGVYNEKQQLKNSMSAGTFTWENDNLTKISRKVTRNGVVKERGVKFSYNSATNKNKFYLLDHTGDDIRSYQEYFALSIAIIKGAAPKNLPIEATPLEENDSYSSRFERPVSFSYTFDGDEFVKTITEKENKFVPGSLYSYVPNNGNNEIGTYWNELQTLIANIENKTVTNKSYKLISDDGSTRIFEITVPVKVEKDSNGKTINLNVNKVCKFTVSYNNTSATDIRMEATYYADIITNYELNY,not soluble
3,MKRISYIEDFEQWESGFSFYNPVKVRFGEVDMFGHVNNVVAFTYFEEARIALFKELGFMQEWTHASSETMIVVADLQCNFIKQIYFDEQLKVYVKAGSVGNSSLDLHYMVKNAEGEICLVGRGMMVQASKKTGRGEPWPEEWKKKLLQ,soluble
4,MKRKKPTIHDVAAKAGVGLGTVSRVLNDHPAVRHETRARVLRAMEELGYAPNPHARRIAGGRSYTVSVLLPFVATEFYRRLVEGIEGVLLEQRYDLALFPILSLARLKRYLENTTLAYLTDGLILASYDLTERFEEGRLPTERPVVLVDAQNPRYDSVYLDNRLGGRLAGAYLARFPGPIFAIAVEEEPDRAFRRTVFAERMAGFQEALKEAGRPFSPDRLYITRHSQEGGRLALRHFLEKASPPLNVFAGADQV,soluble
5,MKRLLLTLTFPLFFVGCASQNPTHMAFSPQVPDISQQTSRPVQISLDTIDSRNAEYVARFMEEGTKTRLVGPSEPPKLLLDEVFRNGFTQAGYQIDPSATNSIQVQLEELQMDVTKKTFGYEAKHSVRIAVQARNSSQELVKRYKAKGVLKGPLTPDFATLEMDMNKLLGQLTGEILNDPELNQFLQK,soluble
6,MKRLWQHCHAATLKGGKYSIVEDAALVTDGPLIHWIGPRAELPPGDYAERIDLGGAWLTPGLIDCHTHAVFGGNRSGEFEQRLEGVSYAEIAAAGGGIASTVRATREASEEELLASARKRLEPLLRDGVTALEIKSGYGLDLASERKMLRVIRRLGERLPATVRSTCLAAHALPPEYAGRADDYIEHICSTMLPALAGEGLVDAVDAFCEHLAFSPAQVERVFIAARELGLPVKLHAEQLSSLHGSSLAARYRALSADHLEYMTEDDARAMGEAGTVAVLLPGAFYLLRETQLPPIDALRRHGVAMAIASDLNPGTSPALSLRLMLNMACTLFRLTPEETLAGVTLHAARALGLEASHGSLEVGKLADFVAWDIERPAELAYWLGGDLPKRVIRHAEEVYRG,not soluble
7,MKRVEDWIKQAERDLEEARYAKSGGYYELACFLSQQCAEKAVKGLLQFQGIEKRGHSISHLLTNPPADILQCATFLDKQYTPSRYPDVYYEGAPYEYYTERDADECINCAIRILNWVKGQIK,soluble
8,MKRVGKQTWVFDEDIYIRAAATAVGPLEADGPLGGYFDIWHRDLYCGEETWELAERRLMSEAVARCLQKAGVSAHDVDLFLAGDLLNQNATSNYVARELPIPFLCLFGACSTSMQTLAAAAAFVAGGLADTALVATSSHNATAERQFRYPTELGVQKPKTATFTVTGAGAALVGRTPGRWRIRAATIGKVIDAGLTNPLDMGAAMAPAAADTIEQHFRDLGTSPSDYDLIVTGDLSRVGSVIVRELLAESGYDISDVYNDCGLMIYRPDQKVFAGGSGCACSAVVTYGYLFHELDRGTFHRLFVVATGALLSQTMVQQKQSIPAVAHGVVIEAAKLEHHHHHH,not soluble
9,MKSDDLERLEESQEMQQLIHAAKEQYEQEKSVHPPVAYAAFAQNLRERQKDGKMKAKQEPPERETFEVKGGKRSGISPWWLVAACLLGGIIGYGISTTSDRQEAGLERLAVADTVIVVRERVDTVYREVEVPSQPLVASRSTVKSKSTGLTKEHVKQSRKAVQKAEPAFISIEFLQQQQNLPDPNSECYAANGMTVAEGNYPFHLLATVPCK,not soluble
10,MKSFCDNDDNNHSNTTNLLGFSLSSNMMKMGGRGGREAIYSSSTSSAATSSSSVPPQLVVGDNTSNFGVCYGSNPNGGIYSHMSVMPLRSDGSLCLMEALNRSSHSNHHQDSSPKVEDFFGTHHNNTSHKEAMDLSLDSLFYNTTHEPNTTTNFQEFFSFPQTRNHEEETRNYGNDPSLTHGGSFNVGVYGEFQQSLSLSMSPGSQSSCITGSHHHQQNQNQNHQSQNHQQISEALVETSVGFETTTMAAAKKKRGQEDVVVVGQKQIVHRKSIDTFGQRTSQYRGVTRHRWTGRYEAHLWDNSFKKEGHSRKGRQVYLGGYDMEEKAARAYDLAALKYWGPSTHTNFSAENYQKEIEDMKNMTRQEYVAHLRRKSSGFSRGASIYRGVTRHHQHGRWQARIGRVAGNKDLYLGTFGTQEEAAEAYDVAAIKFRGTNAVTNFDITRYDVDRIMSSNTLLSGELARRNNNSIVVRNTEDQTALNAVVEGGSNKEVSTPERLLSFPAIFALPQVNQKMFGSNMGGNMSPWTSNPNAELKTVALTLPQMPVFAAWADS,soluble
11,MKSIGTQILQTERLILRRFVESDAEAMFQNWASSAENLTYVTWDPHPDVEITRNSICNWVASYTNLNYYKWAICLKENPEQVIGDISIVKIDEADLSCEIGYVLGKAYWGNGMMTETLKAILDFCFTQAGFQKVRARYASLNPASGRVMEKAGMSYLQTIVNGVERKGYLADLIYYGISREEC,not soluble
12,MKSIIIAAPHSGSGKTTITLGIMECLKRRGLTVAPFKVGPDFIDPGYHRLICGRPSVNLDGWMCGGDFVQETFFHHAAGADIAVVEGVMGLFDGIGGVSDEGSTAEVAKLLGGPVVLVADAKGQARSVAALVKGFADFDPEVRVVGVIFNNVASDAHGRILREAVESHLPDVRVLGCIPRDESLSIPSRHLGLFTVDENPLPAEFLDHLVEVVREHVDLGMLWSVATLQGASDVKRRQDAPRREPVRIGVARDAAFCFVYEDNLRLLREAGAELVEFSPLADRELPEGVAGLYLPGGYPEVFADVLADNTPMKDAVRGAVVGEMPVYAECGGFIYLSRGVTGMRDDLESFNEFVGIFPVATLMLPRRKALGYREVELAADSIIGPVGAMARGHEFHYSEMEAMPPEVERLYRVRRAGIDLGTEGYRHRNCLASYVHIHFGSCPDMAEAFVNHCRNYAQRSHSLEHHHHHH,soluble
13,MKSILEQLSSITVVVADTGDLDAIKKFQPRDATTNPSLILAAAKNPDYIKLIDQALESSRKSLPAGFSESELIKETIDQVSVFFGKEILNLISGRVSTEVDARLSFDTEATVTKARKLINHYKSFGINKERILIKIASTWEGIKAAEILEKEGIKCNLTLLFNFCQAVACANAKITLISPFVGRILDWHKAKTGKDNFAGCEDPGVISVTKIYNYFKEKGFKTEVMGASFRNIDEIKELAGCDLLTIAPKFLDELNREEGELIKKLDEDTQSQSSIDYKFDEKDFRLSMLEDQMASEKLSEGITGFSKAIEELEELLLKRLSEINNQKLISTT,not soluble
14,MKSTMGIILTGGKNDRLKELAEMRSSTAVPIGGKYRVIDFVLSNMVNSGIKNIGVLTQYSFRSLMDHLGSGKEWDLDRRNEGLFIFPPYLAGEHSGWYQGSADAMYHNITFLKRSYEEYVLVAQGNCVYKMLFDDMLDYHIKKNADITIAYRDMSDFPREELSFMGVMTMDENRRVVDFKEKHKNPESTICSMGIYILKRELLIALLEECNSHGKYDFVKDVIINKLPTLNIYGYKFEGYWRNLNSINAYYRINMEMLNPEIRYQLFEQHGKVYTKVKDEPPAKYNEEAEVRNSIIADGCIIEGTVINSVLFRGVTIKRNAVVKDCIIMQDSVIEEDVDIESLIIDKNVYLSKGIRLKGMVNFPITIGKNAVI,not soluble
15,MKTAIIQLPGLNRDRDMVAALHHITGVEPLKIWQTESTIPDVDVIVIPGGFSYGDYLRCGAIGARTPVLQAVREKAQKGVTVIGICNGFQILLEAGLLPGTLMRNTSLKFVCREIKLEVVNVNTKFSRYYSKGQIICCPVAHHDGNYFVDSETLKQMEENEQIIFRYAENTNPNGSVNDIAGIINKAGNILGMMPHPENFIEPAHGGTDGRLFFQSALELAKG,not soluble
16,MKTHKTKNDLPSNAKSTVIGILNESLASVIDLALVTKQAHWNLKGPQFIAVHELLDTFRTQLDNHGDTIAERVVQLGGTALGSLQAVSSTTKLKAYPTDIYKIHDHLDALIERYGEVANMIRKAIDDSDEAGDPTTADIFTAASRDLDKSLWFLEAHVQEKS,soluble
17,MKTIGLLGGMSWESTIPYYRLINEGIKQRLGGLHSAQMLLHSVDFHEIEECQRRGEWDKTGDILAEAALGLQRAGAEGIVLCTNTMHKVADAIESRCTLPFLHIADATGRAITGAGMTRVALLGTRYTMEQDFYRGRLTEQFSINCLIPEADERAKINQIIFEELCLGQFTEASRAYYAQVIARLAEQGAQGVIFGCTEIGLLVPEERSVLPVFDTAAIHAEDAVAFMLS,not soluble
18,MKTLGYILMENGEKIDLEFFPEEAPKTVENFKKLAEQGFYDGVTFHRVIPGFVSQGGDPTGTGAGGPGYSIPCETDGNPHRHLVGSLSMAHAGRNTGGSQFFIVHEPQPHLDGVHTVFGKATSGIETVLNMRQGDVMKEVKVWEE,not soluble
19,MKTLLLLIPLVLTACGTLTGIPAHGGGKRFAVEQELVAASSRAAVKEMDLSALKGRKAALYVSVMGDQGSGNISGGRYSIDALIRGGYHNNPDSATRYSYPAYDTTATTKSDALSGVTTSTSLLNAPAAALTKNNGRKGERSAGLSVNGTGDYRNETLLANPRDVSFLTNLIQTVFYLRGIEVVPPEYADTDVFVTVDVFGTVRSRTELHLYNAETLKAQTKLEYFAVDRDSRKLLIAPKTAAYESQYQEQYALWMGPYSVGKTVKASDRLMVDFSDITPYGDTTAQNRPDFKQNNGKNPDVGNEVIRRRKGG,not soluble
20,MKTLTTERLILRLVSVDDAPFILELYNHPDFYRFVGDKQMRTDYEAVRYIKENMLRMEEKKGVSLLVVEDKQTKQPLGICGLVKRDTLNAYDIGYGFLPSAYGQGFAIEAAKAVIEYAKQAMQLSQLLAITNNDNIRSISLLKKLGFEFEHVEQQYDNGRTLELYTLQL,not soluble
21,MKTNREQEIYVERSFKPNNSTIQNLMDIERFILPHTSTSGVARLKMRVISWVGLQFYNY,soluble
22,MKTSIIILTCNNLRYSRRCIESIKKYTEKEAYEIIVVDNNSNDGTRNWLSKQKAIKKIYNNVNVGFPRGCNMGIKVACGSEVLLLNNDVVVTHNWLNNLRNCLYSSYEIGAVGPISNNCSNGQKINVRYDSIEDMHRFSKKYNISNKKKWTEVKRLIGFCFLIKRNVIRKVGLFDERFTPGNFEDDDYCIRMRKIGFRLMLCKDTFVHHYGSVSFKNTQYLKLLEVNKSKLEKKWGKSYDKLVLEHHHHHH,not soluble
23,MKTVRCSILGFGAIGQGVAEVLLMKKEYLESIGLEIIVVAVVDSRGATINPEGVDLADCLARKRTTGTVAIEKITGVEVIKSIDHDLVIETTPTNIVTGGAGLQNMFAAFEIGKDVITSNKGPLTLKYRELMEAAKVAGSSFRFEATVGGSMPIINLANEVLAGNRLKSIKGILNGTCNYILTRMLEERASYKDILAESMELGIAETDPTYDVDGIDTACKLVILANAIFGLNATYKDVEVTGITKITPEALEMAYERGHVIKLIGEVSRERIHVAPRLVPINHPLDVRGTLNVASIDTELAGEITVTGKGAGPVETASAILSDLIAIYGNQLEHHHHHH,soluble

# Source: the DeepSol protein solubility set
